Test results published in ChEMBL document CHEMBL1143427, “Interactions of ceftobiprole with beta-lactamases from molecular classes A to D” (Antimicrob Agents Chemother, 2007).

Experiments:
Conditions in all cases: Enterobacter cloacae
[1] = substrate: CC(C)(O/N=C(\C(=O)N[C@@H]1C(=O)N2C(C(=O)[O-])=C(C[n+]3ccccc3)CS[C@H]12)c1csc(N)n1)C(=O)O
Description: (§1) Ratio of Kcat to Km of Enterobacter cloacae 908R AmpC assessed as drug hydrolysis by spectrophotometry

[2] = substrate: O=C(Cc1cccs1)N[C@@H]1C(=O)N2C(C(=O)[O-])=C(C[n+]3ccccc3)CS[C@H]12
Description: as §1

[3] = substrate: Nc1nc(/C(=N/O)C(=O)N[C@@H]2C(=O)N3C(C(=O)O)=C(/C=C4\CCN([C@@H]5CCNC5)C4=O)CS[C@H]23)ns1
Description: as §1

[4] = substrate: CO/N=C(\C(=O)N[C@@H]1C(=O)N2C(C(=O)[O-])=C(C[N+]3(C)CCCC3)CS[C@H]12)c1csc(N)n1
Description: as §1

[5] = substrate: CC1(C)S[C@@H]2[C@H](NC(=O)Cc3ccccc3)C(=O)N2[C@H]1C(=O)O
Description: as §1

[6] = substrate: CC(C)(O/N=C(\C(=O)N[C@@H]1C(=O)N2C(C(=O)[O-])=C(C[n+]3ccccc3)CS[C@H]12)c1csc(N)n1)C(=O)O; remark: listed apart in the source
Description: (§2) Ratio of Kcat to Km of Enterobacter cloacae 4092 AmpC (E2) assessed as drug hydrolysis by spectrophotometry

[7] = substrate: O=C(Cc1cccs1)N[C@@H]1C(=O)N2C(C(=O)[O-])=C(C[n+]3ccccc3)CS[C@H]12; remark: listed apart in the source
Description: as §2

[8] = substrate: Nc1nc(/C(=N/O)C(=O)N[C@@H]2C(=O)N3C(C(=O)O)=C(/C=C4\CCN([C@@H]5CCNC5)C4=O)CS[C@H]23)ns1; remark: listed apart in the source
Description: as §2

[9] = substrate: CO/N=C(\C(=O)N[C@@H]1C(=O)N2C(C(=O)[O-])=C(C[N+]3(C)CCCC3)CS[C@H]12)c1csc(N)n1; remark: listed apart in the source
Description: as §2

[10] = substrate: O=C(Cc1cccs1)N[C@@H]1C(=O)N2C(C(=O)O)=C(/C=C/c3ccc([N+](=O)[O-])cc3[N+](=O)[O-])CS[C@H]12
Description: as §2

[11] = substrate: CC1(C)S[C@@H]2[C@H](NC(=O)Cc3ccccc3)C(=O)N2[C@H]1C(=O)O; remark: listed apart in the source
Description: as §2

[12] = substrate: CC(C)(O/N=C(\C(=O)N[C@@H]1C(=O)N2C(C(=O)[O-])=C(C[n+]3ccccc3)CS[C@H]12)c1csc(N)n1)C(=O)O; remark: listed apart in the source
Description: (§3) Activity of Enterobacter cloacae 4092 AmpC (E2) assessed as drug hydrolysis by spectrophotometry

[13] = substrate: O=C(Cc1cccs1)N[C@@H]1C(=O)N2C(C(=O)[O-])=C(C[n+]3ccccc3)CS[C@H]12; remark: listed apart in the source
Description: as §3

[14] = substrate: Nc1nc(/C(=N/O)C(=O)N[C@@H]2C(=O)N3C(C(=O)O)=C(/C=C4\CCN([C@@H]5CCNC5)C4=O)CS[C@H]23)ns1; remark: listed apart in the source
Description: as §3

[15] = substrate: CO/N=C(\C(=O)N[C@@H]1C(=O)N2C(C(=O)[O-])=C(C[N+]3(C)CCCC3)CS[C@H]12)c1csc(N)n1; remark: listed apart in the source
Description: as §3

[16] = substrate: O=C(Cc1cccs1)N[C@@H]1C(=O)N2C(C(=O)O)=C(/C=C/c3ccc([N+](=O)[O-])cc3[N+](=O)[O-])CS[C@H]12; remark: listed apart in the source
Description: as §3

[17] = substrate: CC1(C)S[C@@H]2[C@H](NC(=O)Cc3ccccc3)C(=O)N2[C@H]1C(=O)O; remark: listed apart in the source
Description: as §3

[18] = substrate: CC(C)(O/N=C(\C(=O)N[C@@H]1C(=O)N2C(C(=O)[O-])=C(C[n+]3ccccc3)CS[C@H]12)c1csc(N)n1)C(=O)O; remark: listed apart in the source
Description: (§4) Activity of Enterobacter cloacae 4080 AmpC (P99) assessed as drug hydrolysis by spectrophotometry

[19] = substrate: O=C(Cc1cccs1)N[C@@H]1C(=O)N2C(C(=O)[O-])=C(C[n+]3ccccc3)CS[C@H]12; remark: listed apart in the source
Description: as §4

[20] = substrate: Nc1nc(/C(=N/O)C(=O)N[C@@H]2C(=O)N3C(C(=O)O)=C(/C=C4\CCN([C@@H]5CCNC5)C4=O)CS[C@H]23)ns1; remark: listed apart in the source
Description: as §4

[21] = substrate: CC(C)(O/N=C(\C(=O)N[C@@H]1C(=O)N2C(C(=O)[O-])=C(C[n+]3ccccc3)CS[C@H]12)c1csc(N)n1)C(=O)O; remark: listed apart in the source
Description: (§5) Ratio of Kcat to Km of Enterobacter cloacae 4080 AmpC (P99) assessed as drug hydrolysis by spectrophotometry

[22] = substrate: O=C(Cc1cccs1)N[C@@H]1C(=O)N2C(C(=O)[O-])=C(C[n+]3ccccc3)CS[C@H]12; remark: listed apart in the source
Description: as §5

[23] = substrate: Nc1nc(/C(=N/O)C(=O)N[C@@H]2C(=O)N3C(C(=O)O)=C(/C=C4\CCN([C@@H]5CCNC5)C4=O)CS[C@H]23)ns1; remark: listed apart in the source
Description: as §5

[24] = substrate: CO/N=C(\C(=O)N[C@@H]1C(=O)N2C(C(=O)[O-])=C(C[N+]3(C)CCCC3)CS[C@H]12)c1csc(N)n1; remark: listed apart in the source
Description: as §5

[25] = substrate: CC1(C)S[C@@H]2[C@H](NC(=O)Cc3ccccc3)C(=O)N2[C@H]1C(=O)O; remark: listed apart in the source
Description: as §5

B1: Beta-lactamase (Enterobacter cloacae), P05364 (protein)
chain: MMRKSLCCALLLGISCSALATPVSEKQLAEVVANTITPLMKAQSVPGMAVAVIYQGKPHYYTFGKADIAANKPVTPQTLFELGSISKTFTGVLGGDAIARGEISLDDAVTRYWPQLTGKQWQGIRMLDLATYTAGGLPLQVPDEVTDNASLLRFYQNWQPQWKPGTTRLYANASIGLFGALAVKPSGMPYEQAMTTRVLKPLKLDHTWINVPKAEEAHYAWGYRDGKAVRVSPGMLDAQAYGVKTNVQDMANWVMANMAPENVADASLKQGIALAQSRYWRIGSMYQGLGWEMLNWPVEANTVVEGSDSKVALAPLPVAEVNPPAPPVKASWVHKTGSTGGFGSYVAFIPEKQIGIVMLANTSYPNPARVEAAYHILEALQ
kcat/Km [1]: 660000 M⁻¹ s⁻¹ | kcat/Km [2]: 8.9e+06 M⁻¹ s⁻¹ | kcat/Km [3]: 38000 M⁻¹ s⁻¹ | kcat/Km [4]: 75000 M⁻¹ s⁻¹ | kcat/Km [5]: 8.8e+06 M⁻¹ s⁻¹ | kcat/Km [6]: 1500 M⁻¹ s⁻¹ | kcat/Km [7]: 1.5e+06 M⁻¹ s⁻¹ | kcat/Km [8]: < 2200 M⁻¹ s⁻¹ | kcat/Km [9]: < 33 M⁻¹ s⁻¹ | kcat/Km [10]: 1e+07 M⁻¹ s⁻¹ | kcat/Km [11]: 7.8e+06 M⁻¹ s⁻¹ | Km [12]: 110 µM | kcat [12]: 0.16 s⁻¹ | Km [13]: 480 µM | kcat [13]: 690 s⁻¹ | Km [14]: 26 µM | kcat [14]: < 0.057 s⁻¹ | Km [15]: > 630 µM | kcat [15]: < 0.021 s⁻¹ | Km [16]: 56 µM | kcat [16]: 570 s⁻¹ | Km [17]: 8.3 µM | kcat [17]: 65 s⁻¹ | Km [18]: 2.9 µM | kcat [18]: 0.021 s⁻¹ | Km [19]: 330 µM | kcat [19]: 2500 s⁻¹ | Km [20]: 9.4 µM | kcat [20]: 0.21 s⁻¹ | kcat/Km [21]: 7200 M⁻¹ s⁻¹ | kcat/Km [22]: 7.6e+06 M⁻¹ s⁻¹ | kcat/Km [23]: 22000 M⁻¹ s⁻¹ | kcat/Km [24]: 4000 M⁻¹ s⁻¹ | kcat/Km [25]: 6.8e+06 M⁻¹ s⁻¹
